The source of these data is patent publication US20120276092A1.

The assay deals with polyhistidine-tagged human FcRn (human) (UniProt P55899). As to the kind of experiment: AlphaScreen competition, pH 6.0, against biotinylated human IgG1 mAb CNTO 6234 on polyHis human FcRn. In general terms: Bead proximity is the source of the signal in Alpha formats.
Chain of polyhistidine-tagged human FcRn (human) (P55899 24-297 limits assumed, chain 1 of 2): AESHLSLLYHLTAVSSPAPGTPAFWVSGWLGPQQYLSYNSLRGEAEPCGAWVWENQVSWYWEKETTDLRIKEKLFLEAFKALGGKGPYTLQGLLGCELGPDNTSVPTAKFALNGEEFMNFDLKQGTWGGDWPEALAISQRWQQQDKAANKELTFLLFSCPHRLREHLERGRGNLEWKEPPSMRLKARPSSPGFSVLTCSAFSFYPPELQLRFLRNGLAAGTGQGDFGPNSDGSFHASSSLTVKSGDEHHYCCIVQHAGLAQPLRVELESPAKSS
Chain of polyhistidine-tagged human FcRn (human) (P61769 21-119 limits assumed, chain 2 of 2, further chain): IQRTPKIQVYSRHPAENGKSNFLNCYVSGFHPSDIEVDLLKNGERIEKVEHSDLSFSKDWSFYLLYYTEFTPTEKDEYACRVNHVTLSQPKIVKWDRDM

Turning to “CNTO 5303 (CNTO 530 T359N/N361T) (from UniProt P01861 116-325) (Fc fusion)”, the fold change of KD against CNTO 530 turned out to be 2 fold.
